For assay [1], the target named is T1, MDM4 protein (human), O15151.
T1 chain: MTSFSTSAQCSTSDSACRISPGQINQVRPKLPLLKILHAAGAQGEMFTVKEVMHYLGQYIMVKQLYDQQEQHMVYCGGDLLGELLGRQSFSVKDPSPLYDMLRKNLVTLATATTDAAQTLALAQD
Put plainly: direct fluorescence anisotropy titration of MDM4 against 50 nM FAM-labeled peptide; apparent Kd, 1:1 model. (In fluorescence polarisation assays a small probe gives low polarisation when free and higher when bound to something large.)

Assay [2] addresses Purified MDM2 (1-125) protein (human MDM2 1-125 sequence comprising a modified TEV cleavage site, pNIC-GST fusion) (human), Q00987. The assay can be described thus: competitive fluorescence anisotropy (FP) against FAM-labeled 12/1 peptide on MDM2 (1-125); apparent Kd.
The target in assay [3] is MDM2 (in HCT116 cells) (human), Q00987. The assay can be described thus: cell-based or functional assay.

Bridges are numbered along the chain shown (N, C = ends). [ ]: non-standard residue; d: D form. dPhe(4-CF3) = N[C@H](Cc1ccc(C(F)(F)F)cc1)C(=O)O; dTrp(6-F) = N[C@H](Cc1c[nH]c2cc(F)ccc12)C(=O)O; R5 = C=CCCC[C@@](C)(N)C(=O)O; FAM = carboxyfluorescein

Purified MDM2 (1-125) protein (human MDM2 1-125 sequence comprising a modified TEV cleavage site, pNIC-GST fusion) (human), Q00987, sequence (Q00987 1-125 limits assumed): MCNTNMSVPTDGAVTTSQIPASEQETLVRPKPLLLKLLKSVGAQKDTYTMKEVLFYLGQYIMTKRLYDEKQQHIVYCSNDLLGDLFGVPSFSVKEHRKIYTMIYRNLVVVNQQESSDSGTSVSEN

On to {FAM}-RFMDYWEGL-NH2 (also: places C-terminal amide at E7) [carboxyfluorescein (FAM)-labeled 12/1 peptide 13 (FAM-…-NH2)], for which the Kd in assay [1] was 4 nM.
For the molecule Ac-[dT][dA][dTrp(6-F)][dY][dA][R5][dPhe(4-CF3)][dE][dQ][R5][dL][dS][dA][dA][dA][dA][dA][dA]-NH2 (staple 6-10; also: mixture of cis-trans isomers) [Acetyl-^DPMI-δ-(6-10 olefin staple) (D-K9D-Q, D-R12D-S, 6x(D-A) polypeptide tail)-NH2], the Kd in assay [2] was found to be 3.2 nM. In assay [3], the p53 activity EC50 (µM) (0% FBS, 4 h) was 0.61 µM and the p53 activity EC50 (µM) (10% FBS, 16 h) came out at 0.28 µM.
In the same order, the values of Ac-[dT][dA][dTrp(6-F)][dY][dA][R5][dPhe(4-CF3)][dE][dQ][R5][dL][dS][dA][dA][dA][dA][dA][dA][dA][dA][dA]-NH2 (staple 6-10; also: mixture of cis-trans isomers) [Acetyl-^DPMI-δ-(6-10 olefin staple) (D-K9D-Q, D-R12D-S, 9x(D-A) polypeptide tail)-NH2] are 21.7 nM, 50 µM and more than 50 µM.

These data come from patent US20250042961A1, “P53 PEPTIDOMIMETIC MACROCYCLES” (MERCK SHARP & DOHME LLC, priority 2021, published 2025).
